± gives the standard error. Fewer inactive variants are shown than the library holds.
B1: glmS ribozyme (parent)
chain: AUAAAAGCGCCAGAACUACAGAAAUGUAGUUGACGAGGAGGAGGUUUAUCGAAUUUUCGGCGGAUGCCUCCAAA

Variants of: B1
Test: self-cleavage kobs at 2500 uM GlcN6P; higher = faster cleavage; RNA array
Conditions: with glucosamine-6-phosphate
Summary of the method: (§1)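 Over ~14 h at 37 °C, tiles were imaged as glucosamine-6-phosphate (40 μM to 10 mM) in HEPES/KCl/Mg(OAc)2 buffer flowed across sequenced MiSeq chips. The chips carried barcoded ribozyme variants transcribed in situ by E. coli RNA polymerase and tracked with a hybridised Cy3 probe. After normalisation to baseline and to non-cleaving reference variants, one- or two-exponential decay fits of per-tile medians gave kobs. kcat and KM followed from weighted Michaelis–Menten fits across concentrations.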

Row | Variant | self-cleavage kobs at 2500 uM GlcN6P [s⁻¹]
1 | AUAAAAGCGCCAGAACUACAGAAAUGUAGUUGACGAGAAGGAGGUUUAUCGAGUUUUCGGCGUAUGCCUCCAAA [G38A A53G G63U] | < 1e-05
2 | AUAAAAGCGCCAGAACUACAGAAAUGUAGUUGACGAUGAGUAGGUUGAUCGAAUUUUCGGCGUAUGCCUCCAAA [G37U G41U U47G G63U] | < 1e-05
3 | AUAAAAGCGCCAGACCUACAGAAAUGUAGUUGACGAGGAGGAGGUUUAUCGAAUUUUCGGCGGAUGCCACCAAA [A15C U69A] | 4.7e-05 ± 1.5e-05
4 | AUAAAAGCGCCAGGACUACAGAAAUGUAGUUGACGAGGACCAGGUUUGUCGAAUUUUCGGCGGAUGCCUCGAAA [A14G G40C G41C A48G C71G] | < 1e-05
5 | AUAAAGGCGCCGGAACUACAGAAAUGUAGUUGACGAGGAGGAGGUUUAUCUAAUUUUCGGCGGAUGCCUCCAAA [A6G A12G G51U] | < 1e-05
6 | AUAAAAGCGCCAGAAUUACAGAAAUGUAGUUGACGAGGAGGAGGUUUAUCGAAUUUUUGGCGGAUGCCGCCAAA [C16U C58U U69G] | 7.44e-05 ± 2.1e-05
7 | AUAAAAGCGCCAGAACUACAGAAAUGUAGUUGCCGAGGAGGAGGUUUAUCGAGUGUUCGGCGGAUGCCUCCAAA [A33C A53G U55G] | 0.000103 ± 2.8e-05
8 | AUAAAAGUGCCAGAACUACAGAAAUGUAGUUGAUGAGGAGGAGGUUUAUCGAAUUUUCGGCGCAUGCCUCCAAA [C8U C34U G63C] | < 1e-05
9 | AUAAAGGCGCCAGAACUACAGAAAUGUAGUUGACGAGGGGGAGGUUUAUCGAAGUUUCGGCGGAUGCCUCCAAA [A6G A39G U54G] | 0.000164 ± 4.9e-05
10 | AUAAAAGCGCCAGAACUACAGAAAUGUAGUUUACGAGGCGGAGGUUUAUCGAAUUUUCGGCGGAUGCCUCCAAA [G32U A39C] | 4.98e-05 ± 1.5e-05
11 | AUAAAAGCGCCAGAACUACAGAAAUGUAGUUGACGAGGAGGAGGAUUUUCGAAUUUUCGGCGGAUGCCUCCAAA [U45A A48U] | 0.0011 ± 0.00038
12 | AUAAAAGGGCCAGCACUACAGAAAUGUAGUUGACGAGGAGGAGGUUUAUCGAAUUUUCGGCGGAUGCCUCGAAA [C8G A14C C71G] | < 1e-05
13 | AUAAAAGCGCCAGAACUACAGAAAUGUAGUUGACGAGGAGGAGGUUUAUCGAGUUCUCGUCAGAUGCCUCCAAA [A53G U56C G60U G62A] | < 1e-05
14 | AUAAAAGCGCCAGAAUUACAGAAAUGUAGUUGACGAGGAGGACGGUUAUCGAAUUUUCGGCGGAUGCCUCCAAA [C16U G43C U45G] | 0.000762 ± 0.00024
15 | AUAAAAGCGCCAGAACUACAGAAAUGUAGUUGACGAGGAGGAGGGUUAUCGAAUUUUCGGCGUAUGCCUGCAAA [U45G G63U C70G] | < 1e-05
16 | AUAAAAGCGCGAGAACUACAGAAAUGUAAUUGACGAGGAGGAGGUUUAUCGAAUUUUCGGCGGAUGCCUUCAAA [C11G G29A C70U] | 6.76e-05 ± 3.2e-05
17 | AUAAAAGCGCCAGAACUACAGAAAUGUAGUUGACGGGGAGGAGGUUUAUCGAAUUUUCGGGGGAUGGCGCAAAA [A36G C61G C67G U69G C71A] | < 1e-05

Row | Variant | self-cleavage kobs at 2500 uM GlcN6P [s⁻¹]
18 | AUAAAAGCUCCCGAACUACAGAAAUGUAGUUGGCGAGGAGGAGGUUUAUCGAUUUUUCGGCGGAUGCCUCCAAA [G9U A12C A33G A53U] | < 1e-05
19 | AUAAAAGCGCCAGAACUACAGAAAUGUAGUUGACUAGGAGGAGGUUUAUCGAAUUUUCGGUGGAUGCCUUCAAA [G35U C61U C70U] | < 1e-05
20 | AUAAACGCGCUAGAACUACAUAAAUGUAGUUCACGAGGAGUAUGUUUAUCGAAUUUUCGGCGGAGGCUGCCAAA [A6C C11U G21U G32C G41U G43U U65G C68U U69G] | < 1e-05
21 | AUAAAAGCGCCAGAACUACAGAAAUGUAGGUGACGAGGAGGAGGUUUAUCGAAUUUACGUCGGAUGCCUCCAAA [U30G U57A G60U] | < 1e-05
22 | AUAAAGGCGCCAGAACUACAGAAAUGUAGUUGACGAGGAGGAGGUUUAUCGCAUUUUCGGCGGAGGCCUCCAAA [A6G A52C U65G] | < 1e-05
23 | AUAAAAGCGCCAUAUCUACAGAAAUGUAGGUGACGAGGAGGAGGUUUAUCGAAUUUUCCGCGGAUGCCUCCAAA [G13U A15U U30G G59C] | < 1e-05
24 | AUAAAAGCGGCAGAACUACAGAAAUGUAGUUGACGAGGAGGGGGUUUCUCGAAUUUUCGGCGGAUGCCUCCAAA [C10G A42G A48C] | < 1e-05
25 | AUAAAAGCGCCAGUACUACAGAAAUGUAGAUGACGAGGAGGAGGUUUAUCGAAUUUUCGGCGGAUGCCUUCAAA [A14U U30A C70U] | 0.000871 ± 0.00021
26 | AUAAAGGCCCCAGAACUACAGAAAUGUAGUUGUCGAGGAGGAGGUUUAUCGAAUUUUCGGCGGAUGCCUUCAAA [A6G G9C A33U C70U] | < 1e-05
27 | AUAAAAGCGCGAGAACUACAGAAAUGUAGUUGACGAGGAGAAGGUUUAUCGAAUUUUCGGCUGAUGCUUCCAAA [C11G G41A G62U C68U] | < 1e-05
28 | AUAAAAGCGCCAGAACUACAGAAAUGUAGUUGACGAAGAGGAGGUUUAUCGAAUUUUCGGCGGAUGCAUGCAAA [G37A C68A C70G] | < 1e-05
29 | AUAAAAGCCCCAGAACUACAGAAAUGUAGUUGACGAGGAGGAGGUUUAUCGAAUUUUCGGCGGAUCCCUCCAAA [G9C G66C] | < 1e-05
30 | AUAAAGGCGCCAGAACUACAGAAAUGUAGUUGACGAGGAGGAGGUUUAUCGAACUUUCGGCGCAUGCCUCCAAA [A6G U54C G63C] | < 1e-05
31 | AUAAAAGCGCCAAAACUACAGAAAUGUAGUUUACCAGGCGGAGGUUUAUCGAAUUUUCGGCGGAUGCCUCCAAA [G13A G32U G35C A39C] | < 1e-05
32 | AUAAAAUCGCCAGAACUACAGAAAUGUAGUUGACGAGGAGAAGGUUUAUCGAAUUUUCGGCGGUUGCCUCCAAA [G7U G41A A64U] | < 1e-05
33 | AUAAAAGCGCCAGAACUACAGAAAUGUAGUUGUCGAGGAGGAGGUUUAUCGAAUCUUCGCCGGAUGCCUCCAAA [A33U U55C G60C] | < 1e-05
34 | AUAAAAGUGCCAGAACUACAGAAAUGUAGUUGACGGGGAGGAGGUUUAUAAAAUUUUCGGCGGAUGCUUACAAA [C8U A36G C50A G51A C68U C70A] | 0.000112 ± 4.4e-05

Variants of: B1
Test: self-cleavage kobs at 10000 uM GlcN6P; higher = faster cleavage; RNA array
Conditions: with glucosamine-6-phosphate
Summary of the method: as §1

Row | Variant | self-cleavage kobs at 10000 uM GlcN6P [s⁻¹]
35 | AUAAAAGCGCCAGAACUACAGAAAUGUAGUUGCCGAGGAGGAGGUUUAUCGAGUGUUCGGCGGAUGCCUCCAAA [A33C A53G U55G] | 0.000163 ± 2.9e-05
36 | AUAAAAGCGCCAGAACUACAGAAAUGUAGUUUACGAGGCGGAGGUUUAUCGAAUUUUCGGCGGAUGCCUCCAAA [G32U A39C] | 7.09e-05 ± 1.1e-05
37 | AUAAAGGCGCCAGAACUACAGAAAUGUAGUUGACGAGGAGGAGGUUUAUCGCAUUUUCGGCGGAGGCCUCCAAA [A6G A52C U65G] | < 1e-05

Reference: the supplement of paper PMC7125110
